Experimental data published in IntAct's records for PubMed 12565857.

B1: Chromobox protein homolog 5 (Mus musculus), Q61686 (parent)
chain: MGKKTKRTADSSSSEDEEEYVVEKVLDRRMVKGQVEYLLKWKGFSEEHNTWEPEKNLDCPELISEFMKKYKKMKEGENNKPREKSEGNKRKSSFSNSADDIKSKKKREQSNDIARGFERGLEPEKIIGATDSCGDLMFLMKWKDTDEADLVLAKEANVKCPQIVIAFYEERLTWHAYPEDAENKEKESAKS
partner: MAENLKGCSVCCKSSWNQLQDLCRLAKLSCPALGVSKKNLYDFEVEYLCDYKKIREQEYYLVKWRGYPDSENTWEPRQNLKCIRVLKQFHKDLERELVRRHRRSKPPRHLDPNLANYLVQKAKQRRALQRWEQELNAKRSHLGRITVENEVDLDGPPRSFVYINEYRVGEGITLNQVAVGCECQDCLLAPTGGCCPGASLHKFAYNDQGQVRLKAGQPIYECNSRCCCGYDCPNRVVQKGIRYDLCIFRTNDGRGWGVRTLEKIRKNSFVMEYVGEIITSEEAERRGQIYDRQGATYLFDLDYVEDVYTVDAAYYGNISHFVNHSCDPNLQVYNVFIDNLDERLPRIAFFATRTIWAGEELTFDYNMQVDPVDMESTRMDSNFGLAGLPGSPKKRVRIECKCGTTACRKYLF

Variants of: B1
Settings: with suv91_mouse Suv39h1, O54864

Row | Variant | effect of a mutation on the interaction
1 | I165E;Y168E | disrupting interaction
